Data on 7 molecules can be found in PMC8938434, “Atomic resolution dynamics of cohesive interactions in phase-separated Nup98 FG domains” (Nature Communications, 2022).

First the molecules themselves.
T1: prf.GLFG_(52 × 12)
T1 construct: engineered from the Tetrahymena thermophila MacNup98A FG domain; plasmid pSNG064; Isotope-labelled (15N, 13C) for NMR; also called perfect repeat; source: E. coli, inclusion bodies, Ni(II) chelate column, tag cut off with bdSENP1 protease, lyophilized; not shown: His14-ZZ-scSUMO, N-terminal, cleaved
T1 chain: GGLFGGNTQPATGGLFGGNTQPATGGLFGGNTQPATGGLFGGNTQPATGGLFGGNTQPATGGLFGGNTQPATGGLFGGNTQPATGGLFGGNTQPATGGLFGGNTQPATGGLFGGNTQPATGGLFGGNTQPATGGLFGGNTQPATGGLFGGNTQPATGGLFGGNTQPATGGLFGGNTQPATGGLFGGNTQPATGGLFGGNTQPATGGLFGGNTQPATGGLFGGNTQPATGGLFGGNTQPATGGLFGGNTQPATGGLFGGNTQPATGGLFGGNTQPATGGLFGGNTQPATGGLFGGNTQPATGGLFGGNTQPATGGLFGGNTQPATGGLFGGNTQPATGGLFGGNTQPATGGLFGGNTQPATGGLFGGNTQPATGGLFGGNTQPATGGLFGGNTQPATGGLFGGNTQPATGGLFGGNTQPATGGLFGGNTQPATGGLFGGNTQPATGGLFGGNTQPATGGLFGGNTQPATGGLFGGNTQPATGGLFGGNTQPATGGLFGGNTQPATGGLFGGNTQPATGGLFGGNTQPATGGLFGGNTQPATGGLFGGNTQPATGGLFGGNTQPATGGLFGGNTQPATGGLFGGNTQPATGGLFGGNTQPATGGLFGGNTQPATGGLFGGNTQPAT

B1: GXFG//L_(52 × 12) (other)
chain: GGFGNTGLAPAGGTFGNTQLQQGGGQFGQPQLTQGGGAFGQTGLTTGGGNFGGATLTAPGGGFGGGGLNPTGGNFGGNNLQQTGGTFGQGTLQTGGGNFGAPQLNQGGGTFGGGTLTTGGGQFGANTLTGGGGQFGGPSLPTTAGPFGSNNLTTGGGNFGQPALTNNGGNFGGQTLNQASGQFGANNLPPTNGKFGNNNLPQTAGTFGGATLTGNTGNFGGANLTGGGGNFGNNTLNPTGGPFGATNLAGGGGTFGGGALTGGGGTFGGGNLQTGGGTFGTANLTTAGGTFGGGNLQPQNGTFGNNNLPATGGNFGQTNLAAPQGNFGGTNLNAASGAFGQKPLSANGVLTKPNEKNLCYAISNGTDFCIFELALTQRKLVKAGQLKPGAQAGGQFGQPALNTQGGAFGGGGLATTPGNFGGAQLNTTGGTFGGQNLQAGGGNFGAPNLAAATGAFGAGNLNTQGGAFGAKPLATGGGQFGQPALTQAGGQFGNTALPAGGGTFGGATLTPGGGAFGGNTLATGGGQFGGNTLGATGGPFGGQQLNNQGGAFGNTNLNTGGGTFGGATLTTGGGGFGGSTLATGGGQFGGASLPAAGGPFGGAALQQNSGAFGGATLGQTGGQFGGATLQQGGGSFGQTALNPGGGAFGAANLTTQPGQFGGNNLAATTS
B2: GLFG_(52 × 12) (other)
chain: GLFGNTGGAPAGGLFGNTQTQQGGGLFGQPQQTQGGGLFGQTGATTGGGLFGGATNTAPGGLFGGGGGNPTGGLFGGNNNQQTGGLFGQGTTQTGGGLFGAPQNNQGGGLFGGGTTTTGGGLFGANTQTGGGGLFGGPSQPTTAGLFGSNNPTTGGGLFGQPANTNNGGLFGGQTNNQASGLFGANNQPPTNGLFGNNNKPQTAGLFGGATTTGNTGLFGGANNTGGGGLFGNNTNNPTGGLFGATNPAGGGGLFGGGATTGGGGLFGGGNTQTGGGLFGTANTTTAGGLFGGGNTQPQNGLFGNNNTPATGGLFGQTNNAAPQGLFGGTNNNAASGLFGQKPASANGVLTKPNEKNLCYAISNGTDFCIFELALTQRKLVKAGQLKPGAQAGGLFGQPAQNTQGGLFGGGGAATTPGLFGGAQNNTTGGLFGGQNTQAGGGLFGAPNNAAATGLFGAGNANTQGGLFGAKPAATGGGLFGQPAQTQAGGLFGNTAQPAGGGLFGGATTTPGGGLFGGNTAATGGGLFGGNTQGATGGLFGGQQPNNQGGLFGNTNANTGGGLFGGATTTTGGGLFGGSTGATGGGLFGGASQPAAGGLFGGAAPQQNSGLFGGATAGQTGGLFGGATQQQGGGLFGQTASNPGGGLFGAANATTQPGLFGGNNQAATSC
B3: GXFG//V_(52 × 12) (other)
chain: GGFGNTGVAPAGGTFGNTQVQQGGGQFGQPQVTQGGGAFGQTGVTTGGGNFGGATVTAPGGGFGGGGVNPTGGNFGGNNVQQTGGTFGQGTVQTGGGNFGAPQVNQGGGTFGGGTVTTGGGQFGANTVTGGGGQFGGPSVPTTAGPFGSNNVTTGGGNFGQPAVTNNGGNFGGQTVNQASGQFGANNVPPTNGKFGNNNVPQTAGTFGGATVTGNTGNFGGANVTGGGGNFGNNTVNPTGGPFGATNVAGGGGTFGGGAVTGGGGTFGGGNVQTGGGTFGTANVTTAGGTFGGGNVQPQNGTFGNNNVPATGGNFGQTNVAAPQGNFGGTNVNAASGAFGQKPVSANGVLTKPNEKNLCYAISNGTDFCIFELALTQRKLVKAGQLKPGAQAGGQFGQPAVNTQGGAFGGGGVATTPGNFGGAQVNTTGGTFGGQNVQAGGGNFGAPNVAAATGAFGAGNVNTQGGAFGAKPVATGGGQFGQPAVTQAGGQFGNTAVPAGGGTFGGATVTPGGGAFGGNTVATGGGQFGGNTVGATGGPFGGQQVNNQGGAFGNTNVNTGGGTFGGATVTTGGGGFGGSTVATGGGQFGGASVPAAGGPFGGAAVQQNSGAFGGATVGQTGGQFGGATVQQGGGSFGQTAVNPGGGAFGAANVTTQPGQFGGNNVAATSC
B4: GLLG_(52 × 12) (other)
chain: GSGLLGNTGGAPAGGLLGNTQTQQGGGLLGQPQQTQGGGLLGQTGATTGGGLLGGATNTAPGGLLGGGGGNPTGGLLGGNNNQQTGGLLGQGTTQTGGGLLGAPQNNQGGGLLGGGTTTTGGGLLGANTQTGGGGLLGGPSQPTTAGLLGSNNPTTGGGLLGQPANTNNGGLLGGQTNNQASGLLGANNQPPTNGLLGNNNKPQTAGLLGGATTTGNTGLLGGANNTGGGGLLGNNTNNPTGGLLGATNPAGGGGLLGGGATTGGGGLLGGGNTQTGGGLLGTANTTTAGGLLGGGNTQPQNGLLGNNNTPATGGLLGQTNNAAPQGLLGGTNNNAASGLLGQKPASANGVLTKPNEKNLCYAISNGTDFCIFELALTQRKLVKAGQLKPGAQAGGLLGQPAQNTQGGLLGGGGAATTPGLLGGAQNNTTGGLLGGQNTQAGGGLLGAPNNAAATGLLGAGNANTQGGLLGAKPAATGGGLLGQPAQTQAGGLLGNTAQPAGGGLLGGATTTPGGGLLGGNTAATGGGLLGGNTQGATGGLLGGQQPNNQGGLLGNTNANTGGGLLGGATTTTGGGLLGGSTGATGGGLLGGASQPAAGGLLGGAAPQQNSGLLGGATAGQTGGLLGGATQQQGGGLLGQTASNPGGGLLGAANATTQPGLLGGNNQAATSC
B5: Atto488-coupled GLFG_(52 × 12) (other)
chain: GSGLFGNTGGAPAGGLFGNTQTQQGGGLFGQPQQTQGGGLFGQTGATTGGGLFGGATNTAPGGLFGGGGGNPTGGLFGGNNNQQTGGLFGQGTTQTGGGLFGAPQNNQGGGLFGGGTTTTGGGLFGANTQTGGGGLFGGPSQPTTAGLFGSNNPTTGGGLFGQPANTNNGGLFGGQTNNQASGLFGANNQPPTNGLFGNNNKPQTAGLFGGATTTGNTGLFGGANNTGGGGLFGNNTNNPTGGLFGATNPAGGGGLFGGGATTGGGGLFGGGNTQTGGGLFGTANTTTAGGLFGGGNTQPQNGLFGNNNTPATGGLFGQTNNAAPQGLFGGTNNNAASGLFGQKPASANGVLTKPNEKNLCYAISNGTDFCIFELALTQRKLVKAGQLKPGAQAGGLFGQPAQNTQGGLFGGGGAATTPGLFGGAQNNTTGGLFGGQNTQAGGGLFGAPNNAAATGLFGAGNANTQGGLFGAKPAATGGGLFGQPAQTQAGGLFGNTAQPAGGGLFGGATTTPGGGLFGGNTAATGGGLFGGNTQGATGGLFGGQQPNNQGGLFGNTNANTGGGLFGGATTTTGGGLFGGSTGATGGGLFGGASQPAAGGLFGGAAPQQNSGLFGGATAGQTGGLFGGATQQQGGGLFGQTASNPGGGLFGAANATTQPGLFGGNNQAATSC
modifications: Atto488 (coupled)
B6: Atto488-coupled GAFG_(52 × 12) (other)
chain: GSGAFGNTGGAPAGGAFGNTQTQQGGGAFGQPQQTQGGGAFGQTGATTGGGAFGGATNTAPGGAFGGGGGNPTGGAFGGNNNQQTGGAFGQGTTQTGGGAFGAPQNNQGGGAFGGGTTTTGGGAFGANTQTGGGGAFGGPSQPTTAGAFGSNNPTTGGGAFGQPANTNNGGAFGGQTNNQASGAFGANNQPPTNGAFGNNNKPQTAGAFGGATTTGNTGAFGGANNTGGGGAFGNNTNNPTGGAFGATNPAGGGGAFGGGATTGGGGAFGGGNTQTGGGAFGTANTTTAGGAFGGGNTQPQNGAFGNNNTPATGGAFGQTNNAAPQGAFGGTNNNAASGAFGQKPASANGVLTKPNEKNLCYAISNGTDFCIFELALTQRKLVKAGQLKPGAQAGGAFGQPAQNTQGGAFGGGGAATTPGAFGGAQNNTTGGAFGGQNTQAGGGAFGAPNNAAATGAFGAGNANTQGGAFGAKPAATGGGAFGQPAQTQAGGAFGNTAQPAGGGAFGGATTTPGGGAFGGNTAATGGGAFGGNTQGATGGAFGGQQPNNQGGAFGNTNANTGGGAFGGATTTTGGGAFGGSTGATGGGAFGGASQPAAGGAFGGAAPQQNSGAFGGATAGQTGGAFGGATQQQGGGAFGQTASNPGGGAFGAANATTQPGAFGGNNQAATTSC
modifications: Atto488 (coupled)
B7: Atto488-coupled GXFG//L_(52 × 12) (other)
chain: GSGGFGNTGLAPAGGTFGNTQLQQGGGQFGQPQLTQGGGAFGQTGLTTGGGNFGGATLTAPGGGFGGGGLNPTGGNFGGNNLQQTGGTFGQGTLQTGGGNFGAPQLNQGGGTFGGGTLTTGGGQFGANTLTGGGGQFGGPSLPTTAGPFGSNNLTTGGGNFGQPALTNNGGNFGGQTLNQASGQFGANNLPPTNGKFGNNNLPQTAGTFGGATLTGNTGNFGGANLTGGGGNFGNNTLNPTGGPFGATNLAGGGGTFGGGALTGGGGTFGGGNLQTGGGTFGTANLTTAGGTFGGGNLQPQNGTFGNNNLPATGGNFGQTNLAAPQGNFGGTNLNAASGAFGQKPLSANGVLTKPNEKNLCYAISNGTDFCIFELALTQRKLVKAGQLKPGAQAGGQFGQPALNTQGGAFGGGGLATTPGNFGGAQLNTTGGTFGGQNLQAGGGNFGAPNLAAATGAFGAGNLNTQGGAFGAKPLATGGGQFGQPALTQAGGQFGNTALPAGGGTFGGATLTPGGGAFGGNTLATGGGQFGGNTLGATGGPFGGQQLNNQGGAFGNTNLNTGGGTFGGATLTTGGGGFGGSTLATGGGQFGGASLPAAGGPFGGAALQQNSGAFGGATLGQTGGQFGGATLQQGGGSFGQTALNPGGGAFGAANLTTQPGQFGGNNLAATTSC
modifications: Atto488 (coupled)

The first data set deals with the molecule itself. The experiment in a line: co-sedimentation; centrifugation assay of phase separation of GLFG_(52 × 12) variants at 25 °C, [FG domain] = 10 μM, [NaCl] = 150 mM, 20 mM NaPi pH 6.8, 5 mM DTT; repeated at 100 μM for GAFG, GLLG and GLAG; critical concentration = concentration of the supernatant.
Conditions: not given
For the molecule B1, the “critical concentration for phase separation” value is 0.8 µM.
Consider B2, for which the “critical concentration for phase separation” value turned out to be 0.1 µM.
Still for that read-out and setting: the result for B3 reads 8 µM; that for B4, above 100 µM.

In another data set the target is T1, prf.GLFG_(52 × 12). The experiment in a line: partition of Atto488-coupled FG domains into FG particles (confocal laser scanning microscopy); 20 μM unlabelled prf.GLFG_(52 × 12) premixed with 0.5 μM Atto488-labelled species (GAFG: 3 μM); 20 mM NaPi pH 6.8, 150 mM NaCl, 5 mM DTT; 21 °C; apparent partition coefficient = Atto488 signal IN: OUT of the FG particles. The conditions noted are these: both partners purified.
For the molecule B5, the partition coefficient is above 1000.
In the case of B6, the partition coefficient amounted to 4.
Still for that read-out and setting: under B7 stands above 1000.
